Measurements from patent US20050287518A1 (Scripps Research, published 2005).

Legend:
[1] = molecular target: T1, Recombinant 6His-tagged cdc42 bound to GTPγS (UniProt P60953 1-191, limits assumed); assay: fluorescence of the solvatochromic dye on CBD, comparison of three cysteine mutants (FIG. 15)
T1 construct: Pre-equilibrated with GTPγS; also called cdc42-GTPγS; not shown: 6His tag
Description: (§1) Analyses of the solvatochromic activation indicator—A solution of mero-CBD (300 nM) in assay buffer was mixed 1:1 (v/v) with solutions of cdc42 (concentration as indicated), pre-equilibrated with 10 mM GDP or GTPγS as described in Knaus, U. G., Heyworth, P. G., Kinsella, B. T., Cumutte, J. T., and Bokoch, G. M. (1992) J. Biol. Chem. 267, 23575-23582. Emission wavelength of 630 nm and excitation wavelength of 600 nm were used to acquire excitation and emission spectra, respectively. For nucleotide dependence, cdc42 (500 nM) was pre-incubated with varying concentrations of GTPγS (1 to 500 nM). Rac1 and RhoA GTPases were pre-equilibrated with GTP […]S in the same manner.

[2] = molecular target: T1, Recombinant 6His-tagged cdc42 bound to …; assay: fluorescence of mero-CBD with saturating amounts of cdc42-GTPγS
Description: as §1
(§2) Fluorescence increase as a measure of CBD-cdc42 interaction—The functionality and specificity of mero-CBD was characterized by measuring fluorescence in the presence of saturating amounts of cdc42-GDP or cdc42-GTPγS. […] Negligible increase (<5%) was also observed in the presence of activated Rac1. No effect on the mero-CBD fluorescence was observed when RhoA-GTPγS was present. Furthermore, even in the presence of excess of activated Rac1 and RhoA, GDP- and GTPγS-bound forms of cdc42 were easily distinguished by CBD-A4C fluorescence (data not shown).

[3] = molecular target: T2, Recombinant 6His-tagged RhoA pre-equilibrated with GTPγS (UniProt P61586 1-193, limits assumed); assay: fluorescence of the solvatochromic dye on mero-CBD, in vitro
T2 construct: also called RhoA-GTPγS; not shown: 6His tag
Description: as §1, §2

T1 sequence (P60953 whole entry): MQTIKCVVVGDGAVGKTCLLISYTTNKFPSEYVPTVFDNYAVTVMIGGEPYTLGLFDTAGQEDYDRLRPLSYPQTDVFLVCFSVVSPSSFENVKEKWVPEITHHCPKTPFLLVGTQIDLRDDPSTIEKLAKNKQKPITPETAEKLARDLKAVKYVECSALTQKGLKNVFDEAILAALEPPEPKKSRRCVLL
T2 sequence (P61586 whole entry): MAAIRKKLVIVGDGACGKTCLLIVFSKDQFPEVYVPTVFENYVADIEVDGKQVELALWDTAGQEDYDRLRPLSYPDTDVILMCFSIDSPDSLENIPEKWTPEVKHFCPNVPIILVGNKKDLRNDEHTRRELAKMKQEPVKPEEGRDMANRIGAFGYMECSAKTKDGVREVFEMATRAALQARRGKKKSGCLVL

fold fluorescence change on binding [1]: ~3.5 fold | fold increase in excitation and emission maxima [2]: ~3.5 fold | binding result [3]: no binding
B1: mero-CBD-F271C conjugate (Cdc42-binding fragment of human WASP, amino acids 201 to 321, F271C, C-terminal 6His fusion, labeled with the merocyanine dye of FIG. … (other)
chain: DIQNPDITSSRYRGLPAPGPSPADKKRSGKKKISKADIGAPSGFKHVSHVGWDPQNGFDVNNLDPDLRSLCSRAGISEAQLTDAETSKLIYDFIEDQGGLEAVRQEMRRQEPLPPPPPPSHHHHHH
modifications: chain 1 pos 71 (WASP 271): Cys carrying the thiol-reactive merocyanine dye of FIG. 11, written C
notes: Dye-to-protein ratio 0.8 to 1.2 for single-dye conjugates; also called CBD biosensor; CBD-mero
